Results reported in patent US20030082561.

Assays:
Experiment in all cases: EMSA
[1] = system: ZFP Clone 6 (6-finger) (artificial); details: probe flanks not given; 0.1 mM ZnCl2, 100 mM NaCl, on ice
[2] = system: ZFP Clone 7 (6-finger) (artificial); details: probe flanks not given; 0.1 mM ZnCl2, 100 mM NaCl, on ice
[3] = system: ZFP Clone 5 (BCTV L1 6-finger) (artificial); details: 10 mM Tris-HCl pH 7.5, 100 mM NaCl, 1 mM MgCl2, 0.1 mM ZnCl2, 1 mg/ml BSA, 10% glycerol, poly(dA-dT)2, on ice

Sequence “AGTAAGGTAGGAGATGATA (double strand) [Clone 6 target]” has a Kd [1] of under 3 pM.
In the case of “TACGTGGCATTGGGTGCTC (double strand) [Clone 7 target]”, the Kd [2] is reported as under 3 pM.
With “TATATATATTGGGTGCTTTGGGTGCTCTATATATA (double strand) [L1 19-bp target probe]” the Kd [3] was under 3 pM.
